The record followed here is article PMC7815104.

The experiment deals with recombinant soluble canine IL-10 receptor alpha chain (R1), extra-cytoplasmic domain (canine). The experiment in a line: SPR; rcasIL-10R1 covalently immobilised (EDC/NHS) on a CM5 chip to 1000 RU, Biacore T100; cytokines in PBS with 0.05% Tween 20 applied for 2 min 30 s; each sample evaluated twice, mean ± SD of RU. For orientation: SPR reads the build-up and loss of mass on a sensor chip optically.

As to “recombinant canine IL-10 (from UniProt P48411 20-181) (ligand)”, the RU at 31.2 ng/mL worked out at 211 RU, the RU at 125 ng/mL (plateau) came out at 1720 RU and the binding equilibrium constant (EC80) worked out at 51.4 nM.
